Article PMC8583712, “p53 Transactivation Domain Mediates Binding and Phase Separation with Poly-PR/GR” (International Journal of Molecular Sciences, 2021)
Where no end group is shown, it is not given here. The star is where a group is joined. FITC = O=C1OC2(c3ccc(O)cc3Oc3cc(O)ccc32)c2ccc(NC(=S)*)cc21

B1: N-terminally fluorescein isothiocyanate (FITC)-labelled GR25 (peptide)
peptide: {FITC}-GRGRGRGRGRGRGRGRGRGRGRGRGRGRGRGRGRGRGRGRGRGRGRGRGR
notes: C9orf72 repeat-derived dipeptide repeat; also called FITC-labeled GR25; FITC-GR25; source: synthetic peptide (Peptide Specialty Laboratories GmbH, HPLC-purified)
B2: N-terminally fluorescein isothiocyanate (FITC)-labelled PR25 (peptide)
peptide: {FITC}-PRPRPRPRPRPRPRPRPRPRPRPRPRPRPRPRPRPRPRPRPRPRPRPRPR
notes: C9orf72 repeat-derived dipeptide repeat; also called FITC-labeled PR25; FITC-PR25; source: synthetic peptide (Peptide Specialty Laboratories GmbH, HPLC-purified)

What was measured:
p53^TAD2 = target: T1, p53^TAD2 (Homo sapiens, UniProt P04637); assay: Fluorescence polarization, FITC-labeled PR25/GR25 with p53^TAD2; assay type: binding; details: 100 nM FITC-labelled (N-terminal) peptide, 20 mM Hepes pH 7.0, 50 mM NaCl, 2 mM TCEP, 0.04% NaN3, room temperature, 35 µL, λex 495/λem 530 nm; 1:1 complex; mean of three experiments, errors = SD of the fit; read-out: equilibrium dissociation constant (Kd), p53^TAD2
T1 construct: amino acids 37 to 57 (p53 ^TAD2); ZZ-His6 (cleaved yes); made in house; host or cells: E. coli BL21-DE3 Star
From the text: Measurements were taken at room temperature in black 384-well plates using a ClarioStar Plus (BMG labtech, Ortenberg, Germany) spectrophotometer. Filters were selected as a function of FITC optical characteristics (λex= 495 nm, and λem= 530 nm). […] The polarization data were fitted using graphpad prism 8 with the following equation:(3) P=P0+Pmax×L/L + Kd
Here, P0 represents the polarization of FITC-labelled peptides in absence of p53^1−94 and p53^TAD2, and Pmax to the highest polarization of the binding curve corresponding to the saturation of the interaction. L corresponds to the concentration of p53^1–94 and p53^TAD2 proteins, and Kd is the dissociation constant.

[1] = target: T2, p53^1-94 (human p53 residues 1 to 94: transactivation domains 1 and 2 and poly-proline region) (human, UniProt P04637 1-94); assay: fluorescence polarisation; 100 nM FITC-labelled PR25/GR25 with increasing concentrations of p53 1-94 or p53 TAD2; room temperature; 20 mM Hepes pH 7.0, 50 mM NaCl, 2 mM TCEP, 0.04% NaN3; fit assuming a 1:1 complex; details: both partners purified
T2 construct: human p53, amino acids 1 to 94; 15N- or 13C,15N-labelled for NMR, unlabelled for fluorescence polarisation; also called N-terminal disordered region; source: E. coli BL21-DE3 Star, purified (lysis in 6 M urea, Ni-NTA, TEV cleavage, second Ni-NTA, SEC on Superdex 75 Increase)
T2 sequence (P04637 1-94): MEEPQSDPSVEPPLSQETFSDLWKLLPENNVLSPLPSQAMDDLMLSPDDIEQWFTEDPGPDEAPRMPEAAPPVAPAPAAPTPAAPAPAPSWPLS

[2] = target: B2; assay: as above; details: both partners purified
[3] = target: B1; assay: as above; details: both partners purified

Row | Kd (p53^TAD2) | Kd [1] | Molecule | other results
1 | 2850 ± 510 nM | – | N=C(N)NCCC[C@H](NC(=O)CNC(=O)[C@H](CCCNC(=N)N)NC(=O)CNC(=O)[C@H](CCCNC(=N)N)NC(=O)CNC(=O)[C@H](CCCNC(=N)N)NC(=O)CNC(=O)[C@H](CCCNC(=N)N)NC(=O)CNC(=O)[C@H](CCCNC(=N)N)NC(=O)CNC(=O)[C@H](CCCNC(=N)N)NC(=O)CNC(=O)[C@H](CCCNC(=N)N)NC(=O)CNC(=O)[C@H](CCCNC(=N)N)NC(=O)CNC(=O)[C@H](CCCNC(=N)N)NC(=O)CNC(=O)[C@H](CCCNC(=N)N)NC(=O)CNC(=O)[C@H](CCCNC(=N)N)NC(=O)CNC(=O)[C@H](CCCNC(=N)N)NC(=O)CNC(=O)[C@H](CCCNC(=N)N)NC(=O)CNC(=O)[C@H](CCCNC(=N)N)NC(=O)CNC(=O)[C@H](CCCNC(=N)N)NC(=O)CNC(=O)[C@H](CCCNC(=N)N)NC(=O)CNC(=O)[C@H](CCCNC(=N)N)NC(=O)CNC(=O)[C@H](CCCNC(=N)N)NC(=O)CNC(=O)[C@H](CCCNC(=N)N)NC(=O)CNC(=O)[C@H](CCCNC(=N)N)NC(=O)CNC(=O)[C@H](CCCNC(=N)N)NC(=O)CNC(=O)[C@H](CCCNC(=N)N)NC(=O)CNC(=O)[C@H](CCCNC(=N)N)NC(=O)CNC(=O)[C@H](CCCNC(=N)N)NC(=O)CN)C(=O)O [GR25] | –
2 | 3640 ± 1160 nM | – | N=C(N)NCCC[C@H](NC(=O)[C@@H]1CCCN1C(=O)[C@H](CCCNC(=N)N)NC(=O)[C@@H]1CCCN1C(=O)[C@H](CCCNC(=N)N)NC(=O)[C@@H]1CCCN1C(=O)[C@H](CCCNC(=N)N)NC(=O)[C@@H]1CCCN1C(=O)[C@H](CCCNC(=N)N)NC(=O)[C@@H]1CCCN1C(=O)[C@H](CCCNC(=N)N)NC(=O)[C@@H]1CCCN1C(=O)[C@H](CCCNC(=N)N)NC(=O)[C@@H]1CCCN1C(=O)[C@H](CCCNC(=N)N)NC(=O)[C@@H]1CCCN1C(=O)[C@H](CCCNC(=N)N)NC(=O)[C@@H]1CCCN1C(=O)[C@H](CCCNC(=N)N)NC(=O)[C@@H]1CCCN1C(=O)[C@H](CCCNC(=N)N)NC(=O)[C@@H]1CCCN1C(=O)[C@H](CCCNC(=N)N)NC(=O)[C@@H]1CCCN1C(=O)[C@H](CCCNC(=N)N)NC(=O)[C@@H]1CCCN1C(=O)[C@H](CCCNC(=N)N)NC(=O)[C@@H]1CCCN1C(=O)[C@H](CCCNC(=N)N)NC(=O)[C@@H]1CCCN1C(=O)[C@H](CCCNC(=N)N)NC(=O)[C@@H]1CCCN1C(=O)[C@H](CCCNC(=N)N)NC(=O)[C@@H]1CCCN1C(=O)[C@H](CCCNC(=N)N)NC(=O)[C@@H]1CCCN1C(=O)[C@H](CCCNC(=N)N)NC(=O)[C@@H]1CCCN1C(=O)[C@H](CCCNC(=N)N)NC(=O)[C@@H]1CCCN1C(=O)[C@H](CCCNC(=N)N)NC(=O)[C@@H]1CCCN1C(=O)[C@H](CCCNC(=N)N)NC(=O)[C@@H]1CCCN1C(=O)[C@H](CCCNC(=N)N)NC(=O)[C@@H]1CCCN1C(=O)[C@H](CCCNC(=N)N)NC(=O)[C@@H]1CCCN1C(=O)[C@H](CCCNC(=N)N)NC(=O)[C@@H]1CCCN1)C(=O)O [PR25] | –
3 | – | 430 nM | B1 | –
4 | – | 1840 nM | B2 | –
5 | – | – | SQAMDDLMLSPDDIEQWFTED (domain or fragment, UniProt P04637 37-57, looked up, human p53, amino acids 37 to 57 (TAD2 construct); 15N-labelled for NMR, unlabelled for fluorescence polarisation; source: E. coli BL21-DE3 Star, purified (lysis in 6 M urea, Ni-NTA, TEV cleavage, second Ni-NTA, SEC on Superdex Peptide)) [p53^TAD2 (human p53 transactivation domain 2, amino acids 37 to 57)] | Kd [2]: 3640 nM; Kd [3]: 2850 nM
